One block for each binder: values may come before it.
Experiments:
[1] = target: T1, human HER2 (human, UniProt P04626 23-1255); assay: FACS CHO-HER2, 2000 nM
T1 construct: also called hHER2

[2] = target: T2, hHER3 full length (human, UniProt P21860 20-1342); assay: cell-based or functional assay
[3] = target: T2, hHER3 full length; assay: FACS, 400 nM, competitor 23F05-biotin
[4] = target: T1, human HER2; assay: FACS, CHO-HER2
[5] = target: T1, human HER2; assay: FACS CHO-HER2, 222 nM
[6] = target: T3, human HER1 (human, UniProt P00533 25-1210); assay: FACS, CHO-HER1
T3 construct: also called EGFR; ErbB1

[7] = target: T1, human HER2; assay: FACS CHO-HER2, 667 nM
[8] = target: T4, human HER4 (human, UniProt Q15303 26-1308); assay: FACS CHO-HER4, 222 nM
[9] = target: T2, hHER3 full length; assay: cell-based or functional assay; remark: listed apart in the source
[10] = target: T3, human HER1; assay: FACS CHO-HER1, 222 nM
[11] = target: T2, hHER3 full length; assay: FACS, 400 nM, competitor 04C07-biotin
[12] = target: T2, hHER3 full length; assay: FACS, 400 nM, competitor 17C08-biotin
[13] = target: T5, hHER3 ECD (human HER3 extracellular domain) (human, UniProt P21860 20-643); assay: ELISA, coated hHER3-ECD
T5 construct: also called recombinant HER3-ECD

[14] = target: T4, human HER4; assay: FACS, CHO-HER4
[15] = target: T2, hHER3 full length; assay: FACS, 400 nM, competitor 18E08-biotin
[16] = target: T3, human HER1; assay: FACS CHO-HER1, 667 nM
[17] = target: T6, Chicken Her3 (AA1-25 human, AA26-642 chicken) (chicken (human signal sequence)); assay: FACS, HEK293 with chicken HER3
T6 construct: Transmembrane and extracellular regions only, on transiently transfected HEK293 cells; also called full length extracellular chicken HER3
T6 chain: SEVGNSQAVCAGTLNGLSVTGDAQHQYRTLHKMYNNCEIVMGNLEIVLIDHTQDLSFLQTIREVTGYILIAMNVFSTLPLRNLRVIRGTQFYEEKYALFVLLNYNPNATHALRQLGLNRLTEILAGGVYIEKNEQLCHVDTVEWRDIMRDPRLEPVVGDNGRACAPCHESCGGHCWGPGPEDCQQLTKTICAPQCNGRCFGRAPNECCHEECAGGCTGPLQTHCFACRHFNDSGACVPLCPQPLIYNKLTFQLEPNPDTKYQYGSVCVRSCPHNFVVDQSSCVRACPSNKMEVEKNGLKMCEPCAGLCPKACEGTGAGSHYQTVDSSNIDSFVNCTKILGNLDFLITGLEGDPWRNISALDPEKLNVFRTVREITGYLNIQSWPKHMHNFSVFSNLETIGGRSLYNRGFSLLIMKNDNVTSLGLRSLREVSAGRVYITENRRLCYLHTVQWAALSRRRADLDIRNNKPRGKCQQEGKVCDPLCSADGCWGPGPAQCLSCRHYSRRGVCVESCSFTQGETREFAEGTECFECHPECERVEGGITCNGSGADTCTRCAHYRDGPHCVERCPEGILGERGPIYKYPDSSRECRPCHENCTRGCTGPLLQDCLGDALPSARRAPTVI

[18] = target: T4, human HER4; assay: FACS CHO-HER4, 667 nM
[19] = target: T4, human HER4; assay: FACS CHO-HER4, 2000 nM
[20] = target: T7, cHER3ECD (Maccaca fascicularis HER3 extracellular domain) (Macaca fascicularis, UniProt P21860 20-643 (human entry)); assay: ELISA, coated cHER3-ECD
T7 construct: also called cyno HER3ECD; cyno HER3-ECD
T7 chain: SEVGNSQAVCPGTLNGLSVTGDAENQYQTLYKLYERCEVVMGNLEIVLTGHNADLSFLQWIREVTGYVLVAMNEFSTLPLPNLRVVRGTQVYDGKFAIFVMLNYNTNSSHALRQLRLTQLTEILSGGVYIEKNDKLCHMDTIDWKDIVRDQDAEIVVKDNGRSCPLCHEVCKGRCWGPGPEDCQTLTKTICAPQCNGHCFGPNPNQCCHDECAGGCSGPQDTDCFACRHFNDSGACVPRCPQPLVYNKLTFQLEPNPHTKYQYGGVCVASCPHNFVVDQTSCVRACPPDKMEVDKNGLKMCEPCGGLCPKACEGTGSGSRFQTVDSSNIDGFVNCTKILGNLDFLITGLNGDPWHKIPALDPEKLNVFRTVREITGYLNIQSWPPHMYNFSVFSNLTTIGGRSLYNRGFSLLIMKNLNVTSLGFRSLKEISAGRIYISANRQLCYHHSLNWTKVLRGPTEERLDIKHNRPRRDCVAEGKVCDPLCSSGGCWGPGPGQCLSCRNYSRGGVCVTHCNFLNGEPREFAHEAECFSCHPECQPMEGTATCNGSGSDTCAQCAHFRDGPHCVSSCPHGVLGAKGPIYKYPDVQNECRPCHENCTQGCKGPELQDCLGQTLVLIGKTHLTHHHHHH

[21] = target: T3, human HER1; assay: FACS CHO-HER1, 2000 nM
[22] = target: T2, hHER3 full length; assay: FACS, 400 nM, competitor 04F10-biotin
[23] = target: T2, hHER3 full length; assay: FACS, 400 nM, competitor 21B02-biotin
[24] = target: T2, hHER3 full length; assay: FACS competition with HRG1-β1-EGF, CHO-HER3
[25] = target: T8, human HER3-Fc (R&D Systems, 348-RB) (human, UniProt P21860 20-643); assay: SPR, HER3-Fc captured by anti-Fc
T8 construct: Bought; also called hHER3-Fc; Fc-HER3; Fc part of the bought chimera not given, not described

[26] = target: T8, human HER3-Fc (R&D Systems, 348-RB); assay: alphascreen, competitor biotinylated 18G11

T4 sequence (Q15303 26-1308 limits assumed): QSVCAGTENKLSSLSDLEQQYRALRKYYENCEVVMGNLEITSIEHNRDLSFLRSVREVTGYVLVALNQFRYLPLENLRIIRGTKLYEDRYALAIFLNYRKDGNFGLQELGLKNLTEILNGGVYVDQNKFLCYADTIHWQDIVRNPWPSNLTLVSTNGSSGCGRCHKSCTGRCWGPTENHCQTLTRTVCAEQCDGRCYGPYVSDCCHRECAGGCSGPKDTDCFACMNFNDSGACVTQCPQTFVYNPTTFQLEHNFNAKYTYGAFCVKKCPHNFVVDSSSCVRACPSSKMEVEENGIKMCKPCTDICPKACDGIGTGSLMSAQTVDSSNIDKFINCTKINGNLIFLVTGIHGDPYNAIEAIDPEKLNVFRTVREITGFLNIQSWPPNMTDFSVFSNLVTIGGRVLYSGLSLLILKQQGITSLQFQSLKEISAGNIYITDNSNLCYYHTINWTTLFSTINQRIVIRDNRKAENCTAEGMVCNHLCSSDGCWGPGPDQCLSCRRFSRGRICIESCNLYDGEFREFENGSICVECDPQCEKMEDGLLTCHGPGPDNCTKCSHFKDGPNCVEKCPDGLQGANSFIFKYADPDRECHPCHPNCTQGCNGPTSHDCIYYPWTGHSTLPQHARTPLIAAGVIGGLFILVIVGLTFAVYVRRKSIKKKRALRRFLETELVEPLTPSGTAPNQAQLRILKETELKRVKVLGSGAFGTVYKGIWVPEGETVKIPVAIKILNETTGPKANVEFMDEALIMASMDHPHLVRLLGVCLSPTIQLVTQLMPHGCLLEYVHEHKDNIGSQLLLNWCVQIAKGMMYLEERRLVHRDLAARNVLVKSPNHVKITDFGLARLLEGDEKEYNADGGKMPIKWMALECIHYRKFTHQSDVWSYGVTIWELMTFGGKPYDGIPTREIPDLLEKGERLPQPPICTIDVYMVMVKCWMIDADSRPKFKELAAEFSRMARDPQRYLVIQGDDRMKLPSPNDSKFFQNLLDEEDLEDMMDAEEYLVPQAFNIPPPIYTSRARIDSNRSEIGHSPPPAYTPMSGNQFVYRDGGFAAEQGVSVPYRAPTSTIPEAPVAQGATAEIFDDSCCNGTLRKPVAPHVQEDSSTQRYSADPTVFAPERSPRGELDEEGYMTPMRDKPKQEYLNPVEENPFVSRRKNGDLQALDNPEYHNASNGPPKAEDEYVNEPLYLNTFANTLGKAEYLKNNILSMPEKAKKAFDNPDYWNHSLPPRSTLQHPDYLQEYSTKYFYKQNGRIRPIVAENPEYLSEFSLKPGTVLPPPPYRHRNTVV

- MCF [1]: 832
- IC50, HRG1-β1 induced pHER3, MCF-7 [2]: 1.77e-08 M
- IC50, HRG1-β1 induced pHER3, MDA-MB468 [2]: 2.41e-08 M
- % competition [3]: 100%
- binding result [4]: no binding (tested: 2000 nM)
- MCF [5]: 97
- binding result [6]: no binding (tested: 2000 nM)
- MCF [7]: 264
- MCF [8]: 343
- IC50, HRG1-β1 induced pAkt, MCF-7 [9]: 4.65e-08 M
- inhibition of HRG1-β1 induced pERK1/2, MCF-7 [9]: < 50 % inhibition
- MCF [10]: 153
- % competition [11]: 6%
- % competition [12]: 8%
- EC50 [13]: 0.46 nM
- binding result [14]: no binding (tested: 2000 nM)
- % competition [15]: 16%
- MCF [16]: 67
- binding result [17]: binds
- MCF [18]: 101
- MCF [19]: 95
- EC50 [20]: 0.44 nM
- MCF [21]: 67
- % competition [22]: 15%
- % competition [23]: 100%
- IC50 [24]: 9.44 nM
- Kd [25]: 0.99 nM
- kon [25]: 3.1e+06 M⁻¹ s⁻¹
B1: 23F05 (VHH)
VHH: EVQLVESGGGLVQAGGSLRLSCAASGFTFDGYAIGWFRQAPGKEREGVSCISGGDGRSYYADSVKGRFTVSSDNAKNTLYLEMNSLKPEDTAVYYCAVIWGPYCSDSYEYLYEYDYWGQGTQVTVSS

- MCF [1]: 8570
- IC50, HRG1-β1 induced pHER3, MCF-7 [2]: 4.88e-08 M
- IC50, HRG1-β1 induced pHER3, MDA-MB468 [2]: 9.99e-08 M
- % competition [3]: 98%
- MCF [5]: 1340
- binding result [6]: no binding (tested: 2000 nM)
- MCF [7]: 3610
- MCF [8]: 91
- IC50, HRG1-β1 induced pAkt, MCF-7 [9]: 6.9e-08 M
- inhibition of HRG1-β1 induced pERK1/2, MCF-7 [9]: < 50 % inhibition
- MCF [10]: 64
- % competition [11]: 10%
- % competition [12]: 17%
- EC50 [13]: 1.1 nM
- binding result [14]: no binding (tested: 2000 nM)
- % competition [15]: 20%
- MCF [16]: 64
- binding result [17]: binds
- MCF [18]: 119
- MCF [19]: 273
- EC50 [20]: 0.9 nM
- MCF [21]: 53
- % competition [22]: 15%
- % competition [23]: 100%
- IC50 [24]: 13.3 nM
- Kd [25]: 1.22 nM
- kon [25]: 2.2e+06 M⁻¹ s⁻¹
B2: 21B02 (VHH)
VHH: EVQLVESGGGLVQPGGSLRLSCAASGFTFDYYTIGWFRQAPGKEREGVSCISSRDGDSYYADSVKGRFTISRDNAKNTAYLQMNSLKPEDTAVYYCAASASDYGLGLELFHDEYNYWGQGTQVTVSS

- IC50 [26]: 3.2 nM
B3: HER3MS0050 (VHH)
VHH: EVQLVESGGGLVQPGGSLRLSCAASGTLFKINAMGWYRQAPGKRRELVALITSSDTTDYAESVEGRFTISRDNTWNAVYLQMNSLRPEDTAVYYCHSDHYSMGVPEKRVIMYGQGTLVTVSS
notes: Kabat numbering; also called 18G11 basic variant

— patent US20130136748A1 (Ablynx, published 2013)
